pKd: −log10 of the molar value.
Legend:
Experiment in all cases: BLI
[1] = molecular target: TBTI_13C3x8D3 HC_Y52A_mIgG1 (mouse)
[2] = molecular target: TBTI_13C3x8D3_HC_S101A/LC_Y92A_mIgG1 (mouse)
[3] = molecular target: TBTI_13C3x8D3 HC_N31A_mIgG1 (mouse)
[4] = molecular target: TBTI_13C3x8D3 HC_T100A_mIgG1 (mouse)
[5] = molecular target: TBTI_13C3x8D3 LC_Y49A_mIgG1 (mouse)
[6] = molecular target: TBTI_13C3x8D3 HC_Y53A_mIgG1 (mouse)
[7] = molecular target: TBTI_8D3x13C3_mIgG1 (mouse)
[8] = molecular target: TBTI_13C3x8D3 LC_Y92A_mIgG1 (mouse)
[9] = molecular target: TBTI_13C3x8D3 LC_G68I_mIgG1 (mouse)
[10] = molecular target: TBTI_13C3x8D3_mIgG1 (mouse)
[11] = molecular target: TBTI_13C3x8D3_HC_Y52A/LC_Y49A_mIgG1 (mouse)
[12] = molecular target: TBTI_13C3x8D3 LC_N93A_mIgG1 (mouse)
[13] = molecular target: TBTI_13C3x8D3 HC_S101A_mIgG1 (mouse)
[14] = molecular target: TBTI_13C3x8D3 LC_N31A_mIgG1 (mouse)
[15] = molecular target: TBTI_13C3x8D3_HC_N31A/LC_Y92A_mIgG1 (mouse)
Anti-mTfRC 8D3 (mouse) = molecular target: Anti-mTfRC 8D3 (mouse)
[16] = molecular target: TBTI_13C3x8D3_HC_Y52A-S101A/LC_Y49A-Y92A-mIgG1 (mouse)
[17] = molecular target: TBTI_13C3x8D3_HC_Y52A/LC_Y92A_mIgG1 (mouse)

“mouse transferrin receptor protein (mTfR), Sino Biological 50741-M07H (from UniProt Q62351 89-763)” was tested, and the pKd [1] was 7.75, the koff [1] was 0.000521 s⁻¹ and the kon [1] was 29200 M⁻¹ s⁻¹. For the same substance, the pKd [2] was 8.16, the koff [2] was 0.000357 s⁻¹ and the kon [2] was 51400 M⁻¹ s⁻¹. It also gave a pKd [3] of 8.18, a koff [3] of 0.000159 s⁻¹ and a pKd [4] of 8.42. It also gave a koff [4] of 0.000233 s⁻¹, a kon [4] of 60800 M⁻¹ s⁻¹ and a pKd [5] of 8.35. It also gave a koff [5] of 9.9e-05 s⁻¹, a kon [5] of 22100 M⁻¹ s⁻¹ and a pKd [6] of 8.37. It also gave a koff [6] of 0.000124 s⁻¹, a kon [6] of 29200 M⁻¹ s⁻¹ and a pKd [7] of 9.40. The koff [7] was 2.9e-05 s⁻¹, the kon [7] was 74400 M⁻¹ s⁻¹ and the pKd [8] was 8.16. The koff [8] was 0.000149 s⁻¹, the kon [8] was 21700 M⁻¹ s⁻¹ and the pKd [9] was 8.42. For the same substance, the koff [9] was 0.000105 s⁻¹, the kon [9] was 27200 M⁻¹ s⁻¹ and the pKd [10] was 8.55. The koff [10] was 9.9e-05 s⁻¹, the kon [10] was 35300 M⁻¹ s⁻¹ and the koff [11] was 0.000689 s⁻¹. It also gave a kon [11] of 793000 M⁻¹ s⁻¹, a pKd [12] of 8.38 and a koff [12] of 0.000112 s⁻¹. It also gave a kon [12] of 27100 M⁻¹ s⁻¹, a pKd [13] of 8.05 and a koff [13] of 0.000258 s⁻¹. For the same substance, the kon [13] was 28800 M⁻¹ s⁻¹, the pKd [14] was 8.66 and the koff [14] was 5.4e-05 s⁻¹. The koff [15] was 0.000553 s⁻¹, the kon [15] was 62100 M⁻¹ s⁻¹ and the pKd (Anti-mTfRC 8D3 (mouse)) was 9.27. For the same substance, the koff (Anti-mTfRC 8D3 (mouse)) was 3.9e-05 s⁻¹, the kon (Anti-mTfRC 8D3 (mouse)) was 71300 M⁻¹ s⁻¹ and the pKd [16] was 7.71. It also gave a koff [16] of 0.00111 s⁻¹, a kon [16] of 32600 M⁻¹ s⁻¹ and a pKd [17] of 7.53. It also gave a koff [17] of 0.000734 s⁻¹ and a kon [17] of 25200 M⁻¹ s⁻¹.
